From the nanobody polyreactivity screen of Harvey et al. (2022)

Assay: yeast display, Sf9 membrane polyspecificity reagent, FACS + sequencing; frameworks hold sequencing errors
Method in brief: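 Sorting gates, low and high (top ~1%), were placed on anti-HA fluorescence to track expression and on streptavidin fluorescence to track reagent binding. A clone's polyreactivity label is taken from the gate it came out of. The reagent was 10% biotinylated, detergent-solubilized Sf9 membrane, applied for 1 hour at 4 °C to galactose-induced yeast display cells.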

Sequence	polyreactivity (PSR sort gate)
QVQLVESGGGLVQAGGSLRLSCAASGSTIGPYAMGWYRQAPGKERELVAAITESGDSTYYADSVKGRFTISRDTAKNTVYLQMNSLKPEDTAVYYCAADVYGDKMDYWGQGTQVTVSS	low polyreactivity
QVQLVESGGGLVQAGGSLRLSCAASGSIFKQNDMGWYRHAPGKERELVAAITYTGGSTYYADSVKGRFTISRDNAKNTVYLQMNSLKPEDTAVYYCAARITSPRARSRGFYYWGQGTQVTVSS	high polyreactivity
QVQLVESGGGLVQAGGSLRLSCAASGSIFTRYAMGWYRQAPGKERELVATISKRSGSTYYADSVKGRFTISRDNAKNTVYLQMISLKPEDTAVYYCAARNSGRVKYGYWGQGSQVTVSS	high polyreactivity
QVQLVESGGGLVQAGGSLRLSCAASGSTFGSYGMGWYRQAPGKERELVAVITYSGDRTYYADSVKGRFTISRDNAKNTVYLQMNSLKPEDTAVYYCAADRSYRVSEYDYWGQGTQVTVSS	low polyreactivity
QVQLVESGGGLVQAGGSLRLSCAASAFIFSGNAMGWNRQAPGKERELVAAISGRGGRTYYADSVKGRFTISRDNAKNTVYLQMNSLKPEDTAVYYCAADNPYLGRKFDYWGQGTQVTVSS	high polyreactivity
QVQLVESGGGLVQAGGSLRLICAASGSTFFDYAMGGYRQAPGKEREFVADIYSNGGSTYYADSVKGRFTFSRDNAKNSVYLQMNSLKPEDTAGYYCAAVLRPRQGRRYDYWGQGTQVTVSS	low polyreactivity
QVQLQESGCGLVQEGGSLRPSCAASGSISEGVPMGWSRQAPGEERELVATTVMGATTNYADSVKGRFTISRGNANNTVYLQMISLKPDETAVYYCAAPLRYDKGFSFWGQGTQVTVSS	low polyreactivity
QVQLVESGGGLVQAGGSLRLSCAASGSIFVSYGMGWYRPAPGKERELVAAISGGGVSTYYADSVKGRFTISRDNAKNTVYLQMNSLIPEDTAVYYCAAEVSFGWGNYGYDYWGQGTQVTVSS	high polyreactivity
QVQLVESGGGLVQAGGSLRLSCAASGSIFGVNAMGWYRQAPGKERELVASITGGDSTNYADSVKGRFTISRDNAKNTVYLQMNSLKPEDSAVYYCAKDHYYRYEEGDYWGQGTQVTVSS	low polyreactivity
QVQNVDSGGVLVQAGGSLRLSCEASGRIRYYAMGWYRQAPGKERELVAAISSRGGSTYYADSVKGRFTISRDNAKNTVYLLLNSLKPEDTAVYYCAKGGYWGHGTQVTVSS	high polyreactivity
QVQLVESGGGLVQAGGSLRLSCAASGRTFTVYAMGWYRQAPGKEREFVASISKSGGRTYYADSVKGRFTISRDNAKNTVYLQMNSLKPEDTAVYYCAKVETYLQIAYRRGYDSWGQGTQVTVSS	low polyreactivity
QDQLVESGGGLVQAGGSLRLSCAASGLIFYDNLGWYRQAPGKERELVAAISSSGGSTSYADSVKGRFTISRDNAKNTVYLQMNSLKPEDTAVYYCAADSYPAYLGFVGFDYWGQGTQVTVSS	low polyreactivity
QVQLVESGGGLVQAGGSLRLSCAASGFIFRWYAMGWYRQEPGKERELVAAITWRGGSTYADSVKGRFTISRDNAKNTVYLQMNSLKPEVTAVYYCAAETHRRYDYWGQGTQVTVSS	high polyreactivity
QVQLVESGGGLVQAGGSLRLSCAASGSIFRLYAMGWYRQAPGKERELVAAISRRGGSTNYADSVKGRFTISRDNAKNTVYLQMNSLKPEDTAVYYCARDVDTHYPYAYDYWGQGTQVTVSS	high polyreactivity
QVQLVESGGGLVQAGGSLRLSCAASGSIFRTYAMGWYRQAPGKERELVAAISQSGGSTYYADSVKGRFTISRDNAKNTVYLQMNSLKPEDTAVYYCNKYFTRRQSAVSLSPGKFDYWGQGTQVTVSS	high polyreactivity
QVQLQESGGRLVQAGGSMRLSCAASGTISDSGLMGWYRQAPGKERELVAGISSGGITNYADSVKGRFTISRDNAKNTVSLQMNSLKPEDTAVYWGQGTQVTVSS	low polyreactivity

Sequence	polyreactivity (PSR sort gate)
QVQLVESGGGLVQAGGSLRLSCAASGRTFKTYAMGWYSQAPGKERELVAAISRDGRTYYADSVKGRFTISRDNAKNTVYLQMNSLKPEDTAVYYCNKRSYRKGDYWGQGTQVTVSS	low polyreactivity
QVQLVESGGGLVQAGGSLRLSCAASGNTFCQYAMGWYRQAPGKERELVAAITRSTGSTYYADSVNGRFTISRDNAKNTVYLQMISLKPEDTAVYYCAADFYRHYFRVDSWGQGTQVTVSS	low polyreactivity
QFQLEESGGGLVQAGGSLRLSCAASGITFVDYAMGWYRQAPGKERELVAAITTGGSTNYADSVKGRFTISRDNAKNTVYLQMNSLKPEDTAVYYCNKRPVILYDYWGQGTQVTVSS	low polyreactivity
QVQLVESGGGLVQAGGSLRLSCAASGSIFNSYAMGWSRQAPGKERELVAAISSGGGRTYYADSVKGRFTISRDNAKNTVYLQMNSLKPEDTAVYYCNARAVYRFDYWGQGTQVTVSS	high polyreactivity
QVQLVESGGGVVQAGGSLRLTCAASGRTCPIYAMGWYRQAPGKERELVATITWNDGNTYYADSVKGRFTISRDNAKNTVYLQMNCLKPEDTAVYYCAAKGGWPWHYHYQKNSEYDYWGQGTQVTVSS	low polyreactivity
QVQLGESGGGLVQAGGSLRLSCAASGGIFGKYAMGWYRQAPGKERELVAAISGGSRTNYADSVKGRFTISRDNAKNTVYLQMNSLKPEDTAVYYCAARYAYSAQRLYYWGQGTQVTVSS	high polyreactivity
QVQLVESGGGLVQAGGSLRLSCAASGRIFATNAMGWYRQAPGKERELVAIITRSAGRTYYADSVKGRFTISRDKAKNTVYLQMNSLKPEDTAVYYCNTVPRPFDRYGYWGQGTQVTVSS	low polyreactivity
QVQLVESGGGLVQAGGSLRLSCAASGRIFDKYTMGWYRQAPWKERELVPAISKSGSGTFYADSVKGRFTISRDNAKNTVYLQMNSLKPEDTAVYYCARVYTVGSGRSWRLDYWGQGTQVTVSS	high polyreactivity
QVQLVESGGGLVQAGGSLRLSCAASGSTIDYYAMGLYRQAPGKERELVAGISASGGSTYYADSEKGRFTISRDNAKNTVYLQMNSLKPEDTAVYYCASYYKPPGYDYWGQGTQVTVSS	low polyreactivity
QVQLVESGGGLVQAGGSLRLSCAASGFTFFKYAMGGYRQAPGKERELVAAITRNGGRTYYADSVKGRFTISRDNAKNTVYLHMNSLKPEDTAVYYCNAASVNGGRDFDYWGQGTQVTVSS	high polyreactivity
QVQLVESGGGLVQAGGSLRLSCAASGSTFGPYVMGWYRQAPGKERELVAAISRIGGRTYYADSVKGRFTISRDNAKNTVYLQMNSLKPEDTAVYYCAAKVGLYGDDYWGQGTQVTVSS	high polyreactivity
QVQLVESGGGLVQAGGSLRLSCAASGFTFPHYAMGWYRQAPGKERELVAAISWSGGNTYYADSVKGRFTISRDNAKNTVYLQMNSLKPEDTAVYYCAKGYSSHYWWAYDSWGQVTQVTVSS	high polyreactivity
QVQLVESGGGLVQAGGSLRLSCAASGRIFYRYTMGRYRQAPGKERELVAAITSSSGSTYYADSVKGRFTISRDNAKNTVYLQMNSLKPEDTAVYYCAARIYHDIDTRSYYWGQGTQVTVSS	high polyreactivity
QVQIVESGGGLVQAGGSLRLSCAASGSTFGRYAMGWYRQAPGKEREMVAAISASGGSTYYADSVKGRFTISRDYAKNTVYVQMNSLKPEDTAVYYCAALIDVITCQYDYWGHGTQVTVSS	high polyreactivity
QVQLVESGGGLVQAGGSLRLSCAASGSIFYWNAMGWYRQAPGKEREFVADISQSGDSTYYADSVKGRFTISRDNAKNTVYLQMNSLKQEDTAVYYCAAQFLSYAWDYDYWGQGTQVTVSS	low polyreactivity
QDQHVESGGGLVQAGGSLRLSCAASGFTFSDYALGWYRQAPGKERELVAAISTRGSSTYYADSVKGRFTISRDNAKNTVYLHLNSLKQDYTAVSYCNAVGSYSGYYYWGQGTHVTVSS	high polyreactivity
